We go through two molecules from patent publication US20220273733A1.

For assay [1], the target named is soymeal proteins (ethanol-precipitated, heat-denatured soy-meal protein mixture).
Assay [2] deals with lactoferrin (glycosylated, of human milk) (human) (UniProt P02788).

B1: EndoBI-1 (endo-β-N-acetylglucosaminidase from B. infantis), enzyme solution used in Example 1 (enzyme)
chain: DAVSPTQETIQSTGRHFMVYYRAWRDVTMKGVNTDLPDDNWISMYDIPYGVDVVNIFSYVPSGQEEQAQPFYDKLKSDYAPYLHSRGIKLVRGIDYTGVAVNGFRTFMKEQNKTESEATEADYDAYAKQVIDKYMISVGLDGLDIDMEAHPNDADVKISDNVIRALSKHIGPKSAKPDTTMFLYDTNGSYLNPFKNVAECFDYVAYQQYGSSSDRTARAAADYQPYIGNEFVPGLTFPEEGDMNNRWYDATEPYEESHFYQVASYVREHNLGGMFVYALDRDGRNYDEDLRRIVPSNLLWTKTAIAESEGMALDTAKTAANHYLDRMSLRQVIDDNAASADKARDMVGKAANLYETNKAVLGGDYGEGFSNTYDPTLEAGLLGIDISVLQQQIDKSSEIIGADTAESDAKTALRMARDAAIDGLTGKIYTADQVSAWSQALKAALDATVPVPTPDSTDQNGNRDKVTNHKVQGQPKQLSATGISTDIIVAVGVTLAIAGVALSLSRKLS
With B1, in assay [1], the Glycan Yield (ug), released glycans measured by phenol sulphuric total carbohydrate assay was 75 µg.

B2: EndoBI-1 of B. infantis EVC001 as acting in the gut of EVC001-fed infants (enzyme)
chain: DAVSPTQETIQSTGRHFMVYYRAWRDVTMKGVNTDLPDDNWISMYDIPYGVDVVNIFSYVPSGQEEQAQPFYDKLKSDYAPYLHSRGIKLVRGIDYTGVAVNGFRTFMKEQNKTESEATEADYDAYAKQVIDKYMISVGLDGLDIDMEAHPNDADVKISDNVIRALSKHIGPKSAKPDTTMFLYDTNGSYLNPFKNVAECFDYVAYQQYGSSSDRTARAAADYQPYIGNEFVPGLTFPEEGDMNNRWYDATEPYEESHFYQVASYVREHNLGGMFVYALDRDGRNYDEDLRRIVPSNLLWTKTAIAESEGMALDTAKTAANHYLDRMSLRQVIDDNAASADKARDMVGKAANLYETNKAVLGGDYGEGFSNTYDPTLEAGLLGIDISVLQQQIDKSSEIIGADTAESDAKTALRMARDAAIDGLTGKIYTADQVSAWSQALKAALDATVPVPTPDSTDQNGNRDKVTNHKVQGQPKQLSATGISTDIIVAVGVTLAIAGVALSLSRKLS
In the case of B2, the N-glycans in fecal samples (nano-HPLC-Chip-TOF) compared with the lactoferrin N-glycan library (out of 18 N-glycans) in assay [2] came out at 14.
